Target: ECTV-IL18BP expressed and secreted from mammalian cells, biotinylated (ectromelia virus)
Test: SPR

## IL18 D110A (ligand)
  Kd: 0.2 nM
  koff: 3e-05 s⁻¹
  kon: 260000 M⁻¹ s⁻¹

— article PMC3426546
